Reference: paper PMC4936896

How the values were obtained:
[1] = target: hyperstable HIV-1 CA_(A14C,E45C) cores (HIV-1 (NL4-3)); assay: cross-linking
[2] = target: hyperstable HIV-1 cores (affinity-purified), as used for TRIM5α binding and imaging (HIV-1 (NL4-3)); assay: co-sedimentation; conditions: scale: CA per TRIM5α_(AGMpyg)
[3] = target: truncated TRIM5α_(AGMpyg) that lacked the SPRY domain (African green monkey (Chlorocebus pygerythrus)); assay: SEC; final gel filtration step, HiLoad 16/600 Superdex 200 in 20 mM CHES, 100 nM ZnCl2, 1 mM TCEP, pH 10.0, 4°C; oligomer judged from retention time

hyperstable HIV-1 CA_(A14C,E45C) cores (complex)
stoichiometry N [1]: 6

African green monkey TRIM5α (Chlorocebus pygerythrus) (from UniProt Q5C8U4 1-515) (natural protein)
stoichiometry N [2]: 7

truncated TRIM5α_(AGMpyg) that lacked the SPRY domain (domain or fragment)
stoichiometry N [3]: 2
